As a reminder, the Kd is the constant that tells how readily two partners part at equilibrium. Lower therefore signals tighter binding.

For the assay, the target named is ectodomain construct of MuSK (ectoMuSK) (aa1-472) (Homo sapiens (assumed), UniProt O15146, biotin on the Avitag (site-specific, BirA)). As to the kind of experiment: BLI.
Chain of ectodomain construct of MuSK (ectoMuSK) (aa1-472) (O15146 24-472): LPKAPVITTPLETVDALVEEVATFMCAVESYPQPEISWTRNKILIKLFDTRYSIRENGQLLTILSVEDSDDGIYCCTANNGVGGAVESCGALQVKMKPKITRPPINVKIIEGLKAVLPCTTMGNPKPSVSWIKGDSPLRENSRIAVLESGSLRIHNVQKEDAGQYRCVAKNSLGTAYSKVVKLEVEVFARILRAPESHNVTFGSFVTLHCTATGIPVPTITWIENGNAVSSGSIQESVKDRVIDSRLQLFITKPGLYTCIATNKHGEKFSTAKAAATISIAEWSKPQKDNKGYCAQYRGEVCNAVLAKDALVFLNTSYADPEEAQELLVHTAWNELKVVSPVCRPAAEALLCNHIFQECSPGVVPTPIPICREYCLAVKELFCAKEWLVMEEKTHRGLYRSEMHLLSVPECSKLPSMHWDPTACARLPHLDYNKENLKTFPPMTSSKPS

B1: Fab MuSK1B (mature) (Fab, V domains shown)
VH: EVQLVEWGAGLLKPSETLSLTCAVYGGSFSGDYWWTWIRQPPGKGLEWIGEIDHTGNTNYNPSLKSRLTLSVDMSKNHFSLKLTSVTAADTALYFCARQEGLGYYDSWGQGTLVTVSS
VL: SYELTQSPSVSVSPGQTANITCSGDKLGDRYASWYQQKPAQSPVLVIYQDDRRPSGIPERFSGSNSGNTATLTISGTQGMDEADYYCQAWDGTTVFGGGTKLTVL
In turn, B1 showed a Kd of 0.44 nM.

B2: Fab MuSK1A (mature) (Fab, V domains shown)
VH: QVQLVQSGAEVKKPGASVKVSCKTSGYTFNNYDINWVRQAAGQGLEWMGWMNPYSGNTGYAQKFQGRVTMTRNISITTVYMELSSLRSEDTAVYYCAREVRGDTGYGGGSDYWGQGTLVTVSS
VL: SYELTQPPSVSLSPGQTATITCSGDKLDDNYVCWYQQKPGQSPVLVIYQDTMRPSGIPERFSGSNSGNIATLTISGTQAVDEADYYCQAWDGSTVVFGGGTRLTVL
Molecule B2 gave a Kd of 0.41 nM.

The values above are taken from publication doi:10.1101/2020.03.14.988758 (bioRxiv, 2020).
